Measured values: patent publication US20260209317A1
Read-outs that look alike come from different tables or passages of the source.

Tests used:
[1] = molecular target: SARS-CoV-2 WA-1 S-2P spike protein (SARS-CoV-2), P0DTC2; settings: remark: other sources report otherwise
[2] = molecular target: T1, SARS-CoV-2 Omicron BA.1 spike protein (on pseudotyped lentivirus) (SARS-CoV-2), P0DTC2
[3] = molecular target: T1, SARS-CoV-2 Omicron BA.1 spike protein …; test: cell-based or functional assay

B1: A19-46.1 (antibody)
chain 1: QVQLVESGGGVVQPGRSLRLSCAASGFTLSSYGMHWVRQAPGKGLEWVAVISYDGSNKYYVDSVKGRFTISRDNSKNTLYLQMNSLRAEDTAVYYCARGWAYWELLPDYYYGMDVWGQGTTVTVSS
chain 2: QTVVTQEPSFSVSPGGTVTLTCGLSSGSVSTAYFPSWYQQTPGQAPRTLIYGTNTRSSGVPDRFSGSILGNKAALTITGAQADDESDYYCVLYMGRGIVVFGGGTKLTVL
[1]
  % inhibition of ACE2 binding: 98%

B2: B2-269.1 (antibody, V domains shown)
VH: EVQLVESGGGLVQPGGSLRLSCAASGITVSSNYMSWVRQPPGKGLDWVSLIFSGGSTYYADSVKGRFTISRDNSKNTLYLQMNSLRAEDTAVYYCARVGVAVAGTDYDIWGQGTMVTVSS
VL: DIQMTQSPSSLSASVGDRVTITCQASQDINKYLNWYQQKPGKAPKLLIYDASNLETGVPSRFSGSGSGTDFTFTISSLQPEDIATYYCLHYENLPLSFGGGTKVEIK
[2]
  neutralization IC50: 0.01 µg/mL
  neutralization IC80: 0.02 µg/mL
[3]
  neutralization IC50: < 0.1 µg/mL
